Results from article PMC5008011, “The sclerostin-neutralizing antibody AbD09097 recognizes an epitope adjacent to sclerostin's binding site for the Wnt co-receptor LRP6” (Open Biology, 2016).

T1: 14mer peptide PARLLPNAIGRGKW, equivalent to residues Pro86 to Trp99 of sclerostin loop 2 (Homo sapiens)
T1 construct: loop 2 of sclerostin; also called first peptide; base peptide; source: synthetic peptide, synthesized on solid support (array)
T1 chain: PARLLPNAIGRGKW

T2: 14mer peptide NAIGRGKWWRPSGP, equivalent to residues Asn92 to Pro105 of sclerostin loop 2 (Homo sapiens)
T2 construct: loop 2 of sclerostin; also called second peptide; source: synthetic peptide, synthesized on solid support (array)
T2 chain: NAIGRGKWWRPSGP

T3: 14mer peptide PARLLPNAIGRGKW (Homo sapiens)
T3 construct: stretch of loop 2 of sclerostin; also called base peptide; loop 2 mimicking peptide; source: synthetic peptide, on solid support (peptide array)
T3 chain: PARLLPNAIGRGKW


Columns and labels:
[1] = target: T1, 14mer peptide PARLLPNAIGRGKW, …; assay: peptide or protein array; truncation array: all truncated variants (3 to 14mer) of two 14mer loop 2 peptides synthesized on solid support; Fab added, modified ELISA with goat anti-human peroxidase coupled secondary antibody; conditions: both partners purified
[2] = target: T2, 14mer peptide NAIGRGKWWRPSGP, …; assay: as above; conditions: both partners purified
murine sclerostin [3] = target: T4, murine sclerostin (Mus musculus, UniProt Q99P68); assay: SPR; ProteOn, 25°C, HBS150T (10 mM HEPES, 150 mM NaCl, pH 7.5, 0.005% Tween 20); sclerostin proteins or variants amine-coupled to about 600 RU on a GLC chip; Fabs as analytes at 100, 75, 50, 25, 12.5 and 6.25 nM (one-shot kinetics); 1:1 Langmuir model; conditions: both partners purified
T4 construct: sclerostin, murine; The ELISA may have used the Sf9-made antigen instead; also called mScl
T4 sequence (Q99P68 24-211): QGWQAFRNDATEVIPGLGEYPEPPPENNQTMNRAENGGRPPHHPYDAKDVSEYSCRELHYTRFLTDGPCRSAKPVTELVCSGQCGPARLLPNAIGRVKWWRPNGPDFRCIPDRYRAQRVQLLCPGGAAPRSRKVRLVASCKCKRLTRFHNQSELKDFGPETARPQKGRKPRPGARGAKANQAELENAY

human sclerostin [4] = target: T5, human sclerostin (Homo sapiens, UniProt Q9BQB4); assay: as above; conditions: both partners purified
T5 construct: sclerostin, human; The ELISA may have used the Sf9-made antigen instead; also called hScl
T5 sequence (Q9BQB4 24-213): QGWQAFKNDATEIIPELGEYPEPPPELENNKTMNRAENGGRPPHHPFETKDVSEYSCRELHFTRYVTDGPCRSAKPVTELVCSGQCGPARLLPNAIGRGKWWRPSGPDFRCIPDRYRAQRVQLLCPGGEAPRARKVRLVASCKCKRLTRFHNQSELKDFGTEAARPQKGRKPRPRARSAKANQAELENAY

murine sclerostin [5] = target: T4, murine sclerostin; assay: ELISA; plates coated with 5 µg/ml protein in PBS; Fab at 2 µg/ml, 1 h at room temperature; detection with anti-human Fab-alkaline phosphatase and AttoPhos; signal/noise over the background of BSA, N1-CD33-His6 and GST; conditions: both partners purified
human sclerostin [6] = target: T5, human sclerostin; assay: as above; conditions: both partners purified
[7] = target: T3, 14mer peptide PARLLPNAIGRGKW; assay: peptide or protein array; peptides synthesised on solid support (overlapping, replacement and truncation libraries); Fab detected by a modified ELISA with goat anti-human peroxidase-coupled secondary antibody; conditions: both partners purified
murine sclerostin [8] = target: T4, murine sclerostin; assay: cell-based or functional assay
human sclerostin [9] = target: T5, human sclerostin; assay: cell-based or functional assay
murine sclerostin [10] = target: T4, murine sclerostin; assay: SPR; ProteOn, 25°C, HBS150T (10 mM HEPES, 150 mM NaCl, pH 7.5, 0.005% Tween 20); sclerostin proteins or variants amine-coupled to about 600 RU on a GLC chip; Fabs as analytes at 100, 75, 50, 25, 12.5 and 6.25 nM (one-shot kinetics); 1:1 Langmuir model; conditions: both partners purified; remark: listed apart in the source
human sclerostin [11] = target: T5, human sclerostin; assay: as above; conditions: both partners purified; remark: listed apart in the source
murine sclerostin [12] = target: T4, murine sclerostin; assay: cell-based or functional assay; remark: listed apart in the source
human sclerostin [13] = target: T5, human sclerostin; assay: cell-based or functional assay; remark: listed apart in the source

| Binder | binding result [1] | Kd (murine sclerostin [3]) [nM] | koff (murine sclerostin [3]) [s⁻¹] | kon (murine sclerostin [3]) [M⁻¹ s⁻¹] | Kd (human sclerostin [4]) [nM] | koff (human sclerostin [4]) [s⁻¹] | kon (human sclerostin [4]) [M⁻¹ s⁻¹] | ELISA signal/noise ratio (fold background) (murine sclerostin [5]) | ELISA signal/noise ratio (fold background) (human sclerostin [6]) | binding result [7] | further results |
| --- | --- | --- | --- | --- | --- | --- | --- | --- | --- | --- | --- |
| Fab AbD09097 (Fab, V domains shown, also called ancestor Fab; source: E. coli, periplasmic expression, purified by the hexahistidine-tag) VH: QVQLVESGGGLVQPGGSLRLSCAASGFTFTNYYMHWVRQAPGKGLEWVSTIAYDGSSTYYADSVKGRFTISRDNSKNTLYLQMNSLRAEDTAVYYCARWFTDDIWGQGTLVTVSS VL: not shown | binds | – | – | – | – | – | – | – | – | – | binding result [2]: binds |
| Fab AbD12684 (Fab, V domains shown, consensus motif -QQDXXFPI- (X: His, Glu, Val or Ser); source: E. coli, periplasmic expression, purified via hexahistidine-tag) VH: QVQLVESGGGLVQPGGSLRLSCAASGFTFTNYYMHWVRQAPGKGLEWVSTIAYDGSSTYYADSVKGRFTISRDNSKNTLYLQMNSLRAEDTAVYYCARWFTDDIWGQGTLVTVSS VL: not shown | – | 15 | 0.00025 | 18400 | 32 | 0.00073 | 25300 | 53 | 73 | – | – |
| Fab AbD12685 (Fab, V domains shown, source: E. coli, periplasmic expression, purified via hexahistidine-tag) VH: QVQLVESGGGLVQPGGSLRLSCAASGFTFTNYYMHWVRQAPGKGLEWVSTIAYDGSSTYYADSVKGRFTISRDNSKNTLYLQMNSLRAEDTAVYYCARWFTDDIWGQGTLVTVSS VL: DIVLTQSPATLSLSPGERATLSCRASQSISSNELAWYQQKPGQAPRLLIYDTSNRATGVPARFSGSGSGTDFTLTISSLEPEDFAVYYCQQDYTFPLTFGQGTKVEIK | – | 145 | 0.00029 | 13000 | 56 | 0.001 | 20400 | 46 | 61 | – | – |
| Fab AbD09097 (Fab, V domains shown, format Fab-Thr-MH with a thrombin site (-FLVPRGS-) between CH1 and the tags; kappa light chain; From the HuCAL GOLD phage library, panned on murine sclerostin; also called ancestor Fab AbD09097; HCA230Z (as full-length IgG, AbD Serotec); source: E. coli, periplasmic expression, purified via hexahistidine-tag) VH: QVQLVESGGGLVQPGGSLRLSCAASGFTFTNYYMHWVRQAPGKGLEWVSTIAYDGSSTYYADSVKGRFTISRDNSKNTLYLQMNSLRAEDTAVYYCARWFTDDIWGQGTLVTVSS VL: not shown | – | – | – | – | – | – | – | 39 | 34 | binds | Wnt1 reporter gene assay with 20 nM murine sclerostin and 0-670 nM AbD09097: EC50 of the rescue of Wnt1 activity (murine sclerostin [8]): 46 nM; Wnt1 reporter gene assay with 20 nM human sclerostin and 0-670 nM AbD09097: EC50 of the rescue of Wnt1 activity (human sclerostin [9]): 197 nM; Kd (murine sclerostin [10]): 46 nM; koff (murine sclerostin [10]): 0.00018 s⁻¹; kon (murine sclerostin [10]): 4400 M⁻¹ s⁻¹; Kd (human sclerostin [11]): 260 nM; koff (human sclerostin [11]): 0.0016 s⁻¹; kon (human sclerostin [11]): 6600 M⁻¹ s⁻¹; Wnt1 reporter gene assay (HEK293TSA M50, luciferase): fold change of the IC50 of murine sclerostin for inhibition of Wnt1 activity with 500 nM Fab; the blocked pair is sclerostin and LRP5/6 (murine sclerostin [12]): 12.6 fold; Wnt1 reporter gene assay (HEK293TSA M50, luciferase): fold change of the IC50 of human sclerostin for inhibition of Wnt1 activity with 500 nM Fab; the blocked pair is sclerostin and LRP5/6 (human sclerostin [13]): 6.4 fold |
| Fab AbD12683 (Fab, V domains shown, as the light chain of Dm1 up to the Cys before CDR3L; as the light chain of Dm1 from Thr97 (Kabat) to the end; heavy chain extension as in Dm1; source: E. coli, periplasmic expression, purified by the hexahistidine-tag) VH: QVQLVESGGGLVQPGGSLRLSCAASGFTFTNYYMHWVRQAPGKGLEWVSTIAYDGSSTYYADSVKGRFTISRDNSKNTLYLQMNSLRAEDTAVYYCARWFTDDIWGQGTLVTVSS VL: not shown | binds | – | – | – | – | – | – | – | – | – | – |
| Fab AbD12681 (Fab, V domains shown, consensus motif -QQDXXFPI- (X: His, Glu, Val or Ser); source: E. coli, periplasmic expression, purified via hexahistidine-tag) VH: QVQLVESGGGLVQPGGSLRLSCAASGFTFTNYYMHWVRQAPGKGLEWVSTIAYDGSSTYYADSVKGRFTISRDNSKNTLYLQMNSLRAEDTAVYYCARWFTDDIWGQGTLVTVSS VL: DIVLTQSPATLSLSPGERATLSCRASQSISSNELAWYQQKPGQAPRLLIYDTSNRATGVPARFSGSGSGTDFTLTISSLEPEDFAVYYCQQDHEFPITFGQGTKVEIK | – | 35 | 0.00054 | 17000 | 66 | 0.0016 | 27400 | 26 | 44 | – | – |
| Fab AbD12683 (Fab, V domains shown, carries a tyrosine at position 3 of CDR3L; source: E. coli, periplasmic expression, purified via hexahistidine-tag) VH: QVQLVESGGGLVQPGGSLRLSCAASGFTFTNYYMHWVRQAPGKGLEWVSTIAYDGSSTYYADSVKGRFTISRDNSKNTLYLQMNSLRAEDTAVYYCARWFTDDIWGQGTLVTVSS VL: not shown | – | < 1 | < 1e-06 | 3400 | 53 | 0.00033 | 6400 | 28 | 64 | binds | – |
| Fab AbD12682 (Fab, V domains shown, consensus motif -QQDXXFPI- (X: His, Glu, Val or Ser); source: E. coli, periplasmic expression, purified via hexahistidine-tag) VH: QVQLVESGGGLVQPGGSLRLSCAASGFTFTNYYMHWVRQAPGKGLEWVSTIAYDGSSTYYADSVKGRFTISRDNSKNTLYLQMNSLRAEDTAVYYCARWFTDDIWGQGTLVTVSS VL: not shown | – | 13 | 0.00025 | 22000 | 23 | 0.00066 | 32000 | 44 | 57 | binds | – |
| Fab AbD12682 (Fab, V domains shown, as the light chain of Dm1 up to the Cys before CDR3L; as the light chain of Dm1 from Thr97 (Kabat) to the end; heavy chain extension as in Dm1; source: E. coli, periplasmic expression, purified by the hexahistidine-tag) VH: QVQLVESGGGLVQPGGSLRLSCAASGFTFTNYYMHWVRQAPGKGLEWVSTIAYDGSSTYYADSVKGRFTISRDNSKNTLYLQMNSLRAEDTAVYYCARWFTDDIWGQGTLVTVSS VL: not shown | binds | – | – | – | – | – | – | – | – | – | – |
| Fab AbD12687 (Fab, V domains shown, source: E. coli, periplasmic expression, purified via hexahistidine-tag) VH: QVQLVESGGGLVQPGGSLRLSCAASGFTFTNYYMHWVRQAPGKGLEWVSTIAYDGSSTYYADSVKGRFTISRDNSKNTLYLQMNSLRAEDTAVYYCARWFTDDIWGQGTLVTVSS VL: DIVLTQSPATLSLSPGERATLSCRASQSISSNELAWYQQKPGQAPRLLIYDTSNRATGVPARFSGSGSGTDFTLTISSLEPEDFAVYYCQQDVVMPITFGQGTKVEIK | – | 120 | 0.0017 | 16000 | 228 | 0.0047 | 23300 | 50 | 57 | – | – |
